{"source": "paper PMC11623927", "about": "“Synthesis and biological assessment of chalcone and pyrazoline derivatives as novel inhibitor for ELF3-MED23 interaction” (eLife, 2024)", "key": {"[1]": {"biological_target": "T1, MED23 (mediator of RNA polymerase II transcription subunit 23) (Homo sapiens, UniProt Q9ULK4)", "T1 construct": "(His)6-MED23_391-582; with ELF3 (FITC-labeled ELF3_129-145 peptide)", "assay": "cell-free fluorescence polarization displacement of FITC-ELF3_[…]-145 from (His)6-MED23_[…]-582", "type": "binding"}, "[2]": {"biological_target": "T2, (His)6-MED23_(391-582) protein (UniProt Q9ULK4 391-582)", "T2 construct": "MED23 (mediator of RNA polymerase II transcription subunit 23), residues 391-582", "T2 sequence (looked up)": "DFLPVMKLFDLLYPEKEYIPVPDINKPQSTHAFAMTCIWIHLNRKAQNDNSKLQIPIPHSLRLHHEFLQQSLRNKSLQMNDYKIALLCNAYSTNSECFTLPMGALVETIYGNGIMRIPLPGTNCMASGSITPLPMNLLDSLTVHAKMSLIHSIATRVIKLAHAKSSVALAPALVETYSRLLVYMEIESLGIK", "assay": "fluorescence polarisation; cell-free; different concentrations of (His)6-MED23(391-582) with 10 nM FITC-ELF3(129-145) in assay buffer; least-squares non-linear fit; n=3", "conditions": "both partners purified"}, "[3]": {"biological_target": "T2, (His)6-MED23_(391-582) protein", "assay": "fluorescence polarisation; cell-free displacement; varying concentrations of unlabeled ELF3(137-144) peptide added to 80 nM (His)6-MED23(391-582) and 10 nM FITC-ELF3(129-145); Ki from IC50 by the Cheng-Prusoff equation; n=3", "conditions": "both partners purified"}, "[4]": {"biological_target": "T3, (His)6-MED23_(391-582) protein (UniProt Q9ULK4 391-582)", "T3 chain": "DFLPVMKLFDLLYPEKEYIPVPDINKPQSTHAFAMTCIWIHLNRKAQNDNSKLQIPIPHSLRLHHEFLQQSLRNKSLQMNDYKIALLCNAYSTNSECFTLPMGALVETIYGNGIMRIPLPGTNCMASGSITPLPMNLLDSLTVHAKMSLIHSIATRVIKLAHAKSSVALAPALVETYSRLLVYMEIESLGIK", "assay": "FP; competition with FITC-ELF3(129-145)"}, "Cluc-MED23_(391-582)": {"biological_target": "T4, Cluc-MED23_(391-582) (UniProt Q9ULK4 391-582)", "T4 construct": "MED23 residues 391-582; also called MED23_(391-582) fragment fused with Cluc; source: HEK293, transfected, in cells", "T4 sequence (looked up)": "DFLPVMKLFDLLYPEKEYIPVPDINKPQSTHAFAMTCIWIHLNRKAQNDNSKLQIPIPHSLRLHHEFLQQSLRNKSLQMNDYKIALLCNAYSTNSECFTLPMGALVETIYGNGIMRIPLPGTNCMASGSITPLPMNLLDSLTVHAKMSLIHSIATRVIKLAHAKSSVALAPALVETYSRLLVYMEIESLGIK", "assay": "split reporter (BiFC, NanoBiT); split firefly luciferase complementation in HEK293 co-transfected with Nluc-ELF3 and Cluc-MED23(391-582); without compound 10", "conditions": "partners not purified"}}, "note": "Ends that are not written are not given here.", "data": [{"molecule": "COc1ccc(/C=C/C(=O)c2cc(OC)c(OC)c(OC)c2)cc1OCC=C(C)C", "note": "[compound 10, (E)–3-(4-Methoxy-3-((3-methylbut-2-en-1-yl)oxy)phenyl)–1-(3,4,5-trimethoxyphenyl) prop-2-en-1-one]", "values": [{"measurement": "Ki", "setting": "[1]", "result": "680 ± 80", "unit": "nM"}]}, {"molecule": "TSSSSDELSWIIELLEK (peptide, UniProt P78545 129-145, looked up, also: FITC label, position not given here, also called ELF3-FITC peptide (17 a.a.))", "note": "[fluorescein isothiocyanate (FITC)-labeled ELF3_(129-145) peptide]", "values": [{"measurement": "Kd", "setting": "[2]", "result": 10.2, "unit": "nM"}]}, {"molecule": "SWIIELLE (peptide, UniProt P78545 137-144, looked up, ELF3 residues 137-144 (S137 to E144), within the TAD domain; Positive control of the FP displacement assay)", "note": "[unlabeled ELF3_(137-144) peptide]", "values": [{"measurement": "Ki", "setting": "[3]", "result": 4470, "unit": "nM"}, {"measurement": "IC50", "setting": "[4]", "result": 8810, "unit": "nM"}]}, {"molecule": "Nluc-ELF3WT (natural protein, UniProt P78545 1-371, looked up, ELF3, full-length cDNA, wild type; source: HEK293, transfected, in cells) MAATCEISNIFSNYFSAMYSSEDSTLASVPPAATFGADDLVLTLSNPQMSLEGTEKASWLGEQPQFWSKTQVLDWISYQVEKNKYDASAIDFSRCDMDGATLCNCALEELRLVFGPLGDQLHAQLRDLTSSSSDELSWIIELLEKDGMAFQEALDPGPFDQGSPFAQELLDDGQQASPYHPGSCGAGAPSPGSSDVSTAGTGASRSSHSSDSGGSDVDLDPTDGKLFPSDGFRDCKKGDPKHGKRKRGRPRKLSKEYWDCLEGKKSKHAPRGTHLWEFIRDILIHPELNEGLMKWENRHEGVFKFLRSEAVAQLWGQKKKNSNMTYEKLSRAMRYYYKREILERVDGRRLVYKFGKNSSGWKEEEVLQSRN", "values": [{"measurement": "fold change of bioluminescence vs. control", "setting": "Cluc-MED23_(391-582)", "result": 32.7, "unit": "fold"}]}]}
